Test [1] deals with gB 69-78 peptide (human cytomegalovirus) (UniProt P06473). Kind of test: ELISA on peptide. In general terms: ELISA stands for enzyme-linked immunosorbent assay.
The target of test [2] is T1, hCMV gH protein, full length, expressed in HEK293T cells (human cytomegalovirus), P12824. Kind of test: cell cross-competition, 20x excess; competitor 11B12-biotin. Conditions: remark: other sources report otherwise.
The target in test [3] is T1, hCMV gH protein, full length, expressed …. In words: cell cross-competition, 20x excess; competitor 3G16-biotin. Conditions: remark: other sources report otherwise.
Test [4] shares this target. Kind of test: cell cross-competition, 20x excess; competitor 13H11-biotin. Conditions: remark: other sources report otherwise.

B1: 6B4 (antibody, V domains shown)
VH: QVQLVESGGGVVQPGRSLRLSCAASGFRFNEFNMHWVRQAPGKGLEWVAVISIDGRHKYNADSVEGRFTISRDNSRNTLYLQMNSLRVEDTALYYCVTDGKAVDGFSGILEFWGQGTPVTVST
VL: EIVLTQSPATLSLSPGERATLSCWASQSVGGYLAWYQQKPGQAPRLLIYDASIRATGIPARFSGSGSGTHFTLTINSLEPEDFAVYYCQQRNNWPPLTFGGGTKVEIK
The molecule B1 displayed a concentration giving a half-maximal response (EC50) in test [1] of 0.044 µg/mL.

B2: 11B12 (antibody, V domains shown)
VH: QMQLVQSGPQVKKPGTSVKVSCKASGFTFTSSAMQWVRQARGQRPEWIGWIVLGSGNTNYAQKFQERVTLTRDMSTATAYMELSSLRSEDTAVYYCAADRGRGGYNVYTYWGQGTLVAVSS
VL: EIVMTQSPGTLSLSPGERATLSCRASQTISNTYVAWYQQKPGQAPRLLIYGASSRATGIPDRFSGSGSGTDFTLTIRRLEPEDFAVYYCQQNGQSPWTFGQGTNVEIK
Consider B2, for which the Inhibition of binding (%) in test [2] came out at 100%; in test [3], 0%; in test [4], 100%.

B3: 13H11 (antibody, V domains shown)
VH: QVQLVQSGAEVKKPGASVKVSCKASGYTFTNYYIHWVRQAPGQGLEWMGIIHPSSGGTSYAQKFQGRVTMTRDTSTSTVSMDLSSLRSEDTAVYYCGRAFRILGLSDVFVNDWGQGTVVTVSS
VL: DIQMTQSPSSLSASVGDRVTITCRASQGINNYLAWYQQKPGKVPKLLIYAASTLQSGVPSRFSGSGSGTAFTLTILSLQPEDVATYYCQKYNSAPFTFGPGTKVDIK
As to B3, the Inhibition of binding (%) was determined as 100% in test [2], 0% in test [3] and 100% in test [4].

B4: 3G16 (antibody, V domains shown)
VH: RAQLVQSAAEMKNPGASVKVSCEASGYTFTGYYVHWMRQAPGQGLEWMGWINPMTGATKSPQKFQGRVTMTRDTSTTATHIELTRLRSDDSAVFFCARGGPTSTRITGKRHFDLWGRGTLITVAS
VL: QSALTQPASVSGSPGESITISCTGTISDVGAYNSVSWYQQHSGTAPELIIYDVTNRPAGVSSRFSGSKSGNTASLTISWLQSEDEAEYYCSSYTTSDTYVFGSGTQVTVL
B4: the Inhibition of binding (%) amounted to 0% in test [2], 100% in test [3] and 0% in test [4].

Broadly, the EC50 is the concentration at which the effect is half-maximal. Read a high EC50 as weaker potency.

The values above are taken from patent US20100092481A1.
